What is called Kd is the concentration at which binding is half-saturated.

Holding throughout (test): other fluorescence titration; change in Oregon Green 488 fluorescence intensity of the labeled SNARE complex as a function of α-SNAP concentration; fit y = Fmax·x/(KD + x); three independent experiments
Assay [1] deals with all four ternary SNARE complexes.
In assay [2] the target is T1, VAMP7-syntaxin4-SNAP23 ternary SNARE complex, labeled with Oregon Green 488 (rat, UniProt Q9JHW5 1-190; Q08850 1-274; O70377 1-210, C21S | C56V | C141S | E257C | I261C, Oregon Green 488 (maleimide) on cysteines; the labeled endogenous and mutant cysteines are shown in Figure 1A).
T1 construct: VAMP7, rat, residues 1-190; syntaxin4A, rat, residues 1-274; tag-free; SNAP23, rat; Removal of the His6 tag is told only for α-SNAP; also called VAMP7(1–190)-C21S/C56V-syntaxin4A(1–274)-C141S/E257C/I261C-SNAP23; source: E. coli BL21(DE3), coexpressed, purified (Ni-NTA, Superdex 200); copies: + +
T1 sequence (looked up) 1: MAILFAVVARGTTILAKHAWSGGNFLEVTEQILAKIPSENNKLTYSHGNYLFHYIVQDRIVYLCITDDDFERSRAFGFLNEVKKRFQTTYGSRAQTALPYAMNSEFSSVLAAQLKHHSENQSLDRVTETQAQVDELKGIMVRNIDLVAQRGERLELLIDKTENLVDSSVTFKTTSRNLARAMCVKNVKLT
T1 sequence (looked up) 2: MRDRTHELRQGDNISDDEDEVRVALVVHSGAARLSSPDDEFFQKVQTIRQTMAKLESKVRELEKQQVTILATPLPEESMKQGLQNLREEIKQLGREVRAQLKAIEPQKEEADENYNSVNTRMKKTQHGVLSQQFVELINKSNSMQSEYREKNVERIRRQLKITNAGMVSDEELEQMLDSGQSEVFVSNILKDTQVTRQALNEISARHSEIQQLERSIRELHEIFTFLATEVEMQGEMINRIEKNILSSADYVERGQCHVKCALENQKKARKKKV
T1 sequence (looked up) 3: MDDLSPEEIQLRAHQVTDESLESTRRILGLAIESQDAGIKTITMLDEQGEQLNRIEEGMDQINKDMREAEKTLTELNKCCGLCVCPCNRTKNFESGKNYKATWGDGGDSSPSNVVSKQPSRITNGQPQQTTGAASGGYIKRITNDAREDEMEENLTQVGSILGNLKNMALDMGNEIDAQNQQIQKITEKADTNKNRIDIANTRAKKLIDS
Particulars: both partners purified.

Assay [3] addresses T2, VAMP8-syntaxin4-SNAP23 ternary SNARE complex, labeled with Oregon Green 488 (rat, UniProt Q9WUF4 1-76; Q08850 1-274; O70377 1-210, I76C | C141S | E257C | I261C, Oregon Green 488 (maleimide) on cysteines; the labeled endogenous and mutant cysteines are shown in Figure 1A | Oregon Green 488 (maleimide) on cysteines; the labeled endogenous and mutant cysteines …).
T2 construct: VAMP8 (endobrevin), rat, residues 1-76; syntaxin4A, rat, residues 1-274; tag-free; SNAP23, rat; Removal of the His6 tag is told only for α-SNAP; also called VAMP8(1–76)-I76C-syntaxin4A(1–274)-C141S/E257C/I261C-SNAP23; source: E. coli BL21(DE3), coexpressed, purified (Ni-NTA, Superdex 200); copies: + +
T2 sequence (looked up) 1: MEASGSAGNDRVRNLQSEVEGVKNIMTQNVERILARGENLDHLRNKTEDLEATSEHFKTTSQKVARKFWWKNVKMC
T2 sequence (looked up) 2: T1 sequence (looked up) 2
T2 sequence (looked up) 3: T1 sequence (looked up) 3
As to conditions: both partners purified.

B1: α-soluble NSF attachment protein (α-SNAP) (natural protein, rat, UniProt P54921 1-295, looked up)
chain: MDTSGKQAEAMALLAEAERKVKNSQSFFSGLFGGSSKIEEACEIYARAANMFKMAKNWSAAGNAFCQAAQLHLQLQSKHDAATCFVDAGNAFKKADPQEAINCLMRAIEIYTDMGRFTIAAKHHISIAEIYETELVDVEKAIAHYEQSADYYKGEESNSSANKCLLKVAGYAAQLEQYQKAIDIYEQVGTSAMDSPLLKYSAKDYFFKAALCHFCIDMLNAKLAVQKYEELFPAFSDSRECKLMKKLLEAHEEQNVDSYTESVKEYDSISRLDQWLTTMLLRIKKTIQGDEEDLR
notes: α-SNAP, rat; His6 tag removed with tobacco etch virus protease; source: E. coli BL21(DE3), purified (Ni-NTA, Superdex 200)
As to B1, in assay [1], the Kd was in the range of 200 to 600 nM. Further, the binding result in assay [2] and in assay [3] was “binds” in each case.

Values taken from publication PMC3750193, “Disassembly of All SNARE Complexes by N-Ethylmaleimide-sensitive Factor (NSF) Is Initiated by a Conserved 1:1 Interaction between α-Soluble NSF Attachment Protein (SNAP) and SNARE Complex*^([image sbox.jpg])” (The Journal of Biological Chemistry, 2013).
